{"source": "paper PMC2646144", "about": "“Crucial Role of the CB3-Region of Collagen IV in PARF-Induced Acute Rheumatic Fever” (PLoS ONE, 2009)", "target": "T1, GST-M3-protein (recombinant streptococcal M-protein type 3) (S. pyogenes)", "T1 construct": "M-protein type 3 (M3-protein) of Streptococcus pyogenes; emm3 amplified from chromosomal DNA of the M3 strain with primers M3-1 (BamHI) and M3-3 (SalI); The GST tag is named on the protein for electron microscopy and the pull-down; also called M3-GST; GST-tagged M-protein type M3; source: E. coli, pGEX6P-1, purified under native conditions; not shown: GST, N-terminal, kept", "assay": "SPR; BIAcore 2000, CIV or CB3 immobilised on CM5 chip by amine coupling, M3-protein injected at 6.25-50 µg/ml, 10 mM HEPES, 100 mM NaCl, pH 7.4; apparent dissociation constants", "conditions": "both partners purified"}
{"binder": "Cyanogen bromide fragment 3 (CB3) of collagen type IV (domain or fragment, 125I (chloramine T method) in the pull-down, bacterial binding and overlay assays | 125I (chloramine T method) in the pull-down, bacterial binding and overlay assays) chain 1: PGVGEKGEPGKPGPRGKPGKDGDKGEKGSPGFPGEPGYPGLIGRQGPQGEKGEAGPPGPPGIVIGTGPLGEKGERGYPGTPGPRGEPGPKGFPGLPGQPGPPGLPVPGQAGAPGFPGERGEKGDRGFPGTSLPGPSGRDGLPGPPGSPGPPGQPGYTNGIVECQPGPPGDQGPPGIPGQPGFIGEIGEKGQKGESCLICDIDGYRGPPGPQGPPGEIGFPGQPGAKGDRGLPGRDGVAGVPGPQGTPGLIGQPGAKGEPGEFYFDLRLKGDKGDPGFPGQPGM chain 2: GFPGLRGYPGLSGEKGSPGQKGSRGLDGYQGPDGPRGPKGEAGDPGPPGLPAYSPHPSLAKGARGDPGFPGAQGEPGSQGEPGDPGLPGPPGLSIGDGDQRRGLPGEM chain 3: GPKGFIGDPGIPALYGGPPGPDGKRGPPGPPGLPGPPGPDGFLFGLKGAKGRAGFPGLPGSPGARGPKGWKGDAGECRCTEGDEAIKGLPGLPGPKGFAGINGEPGRKGDRGDPGQHGLPGFPGLKGVPGNIGAPGPKGAKGDSRTITTKGERGQPGVPGVPGM", "values": [{"measurement": "Kd", "result": 0.06, "unit": "µM"}]}
